Experimental data: PMC12212125, “Constitutively active Arabidopsis cryptochrome two alleles identified using yeast selection and deep mutational scanning” (The Journal of Biological Chemistry, 2025)

B1: Arabidopsis thaliana cryptochrome 2 (CRY2, UniProt Q96524), residues 1-535 fused after the Gal4 DNA-binding domain (Gal4BD-CRY2(535)); mutagenized window 321-412, Q96524 (parent)
chain: MKMDKKTIVWFRRDLRIEDNPALAAAAHEGSVFPVFIWCPEEEGQFYPGRASRWWMKQSLAHLSQSLKALGSDLTLIKTHNTISAILDCIRVTGATKVVFNHLYDPVSLVRDHTVKEKLVERGISVQSYNGDLLYEPWEIYCEKGKPFTSFNSYWKKCLDMSIESVMLPPPWRLMPITAAAEAIWACSIEELGLENEAEKPSNALLTRAWSPGWSNADKLLNEFIEKQLIDYAKNSKKVVGNSTSLLSPYLHFGEISVRHVFQCARMKQIIWARDKNSEGEESADLFLRGIGLREYSRYICFNFPFTHEQSLLSHLRFFPWDADVDKFKAWRQGRTGYPLVDAGMRELWATGWMHNRIRVIVSSFAVKFLLLPWKWGMKYFWDTLLDADLECDILGWQYISGSIPDGHELDRLDNPALQGAKYDPEGEYIRQWLPELARLPTEWIHHPWDAPLTVLKASGVELGTNYAKPIVDIDTARELLAKAISRTREAQIMIGAAPDEIVADSFEALGANTIKEPGLCPSVSSNDQQVPSAV

Variants of: B1
Test: yeast two-hybrid growth selection (MaV203; Gal4BD-CRY2(1-535) library x Gal4AD-CIB1; URA3 reporter on SC -Trp/-Leu/-Ura) in the dark, deep sequencing before and after selection, Enrich2 scoring; three independent screens (one at 48 h, two …)
Details: with CIB1 (CRYPTOCHROME-INTERACTING BASIC-HELIX-LOOP-HELIX 1), dark (no blue light), screens 1, 3 and 4, Svar > 0 = enriched under dark selection for CRY2-CIB1 two-hybrid growth (URA3 reporter), < 0 = depleted, relative to wild type (whose scores are 0). 'The Enrich2 software calculates, parent: 0, not an affinity, scale: Enrich2 score, numbering: uniprot, sequence starts at 1

Point of comparison: T351A, enrichment -1.04. Against it:
- Y338C — lower, -1.57
- Y338D — lower, -1.31
- Y338S — higher, -0.758
- L348F — higher, 2.98
- L348P — lower, -1.54
- L348R — lower, -1.14
- L348I — higher, -0.199
- L348H — lower, -1.52
- G337C — lower, -1.19
- G337R — higher, -0.665
- G337V — lower, -1.13
- G337S — higher, -0.736
- M354K — lower, -1.63
- M354I — higher, 0.689
- A330S — higher, -0.0962
- A330T — higher, -0.56
- A330G — lower, -2.23
- A330D — higher, -0.577
- A330P — lower, -1.93
- A330V — lower, -1.26
- G334A — lower, -1.45
- G334V — higher, -0.578
- G334S — higher, -0.925
- G334C — higher, 0.0705
- A350V — higher, -0.0426
- A350G — higher, 0.232
- A350P — lower, -1.4
- A350S — higher, 0.303
- A350D — higher, -0.775
- A350T — higher, -0.108
- W331R — lower, -1.72
- W331G — lower, -1.69
- W331C — higher, -0.871
- W331L — higher, 1
- M345V — lower, -1.49
- M345R — lower, -1.12
- M345T — lower, -1.83
- M345L — higher, -0.395
- M345K — lower, -1.43
- M345I — higher, -0.745
- G352A — lower, -1.47
- G352R — higher, -0.844
- G352E — higher, -0.327
- K327Q — higher, 0.397
- K327E — lower, -1.63
- K327M — higher, -0.448
- K327R — higher, 0.118
- K327T — higher, -0.117
- K327N — higher, -0.0863
- W349C — higher, 0.242
- W349G — higher, 0.303
- W349R — higher, 0.599
- W349S — higher, 0.756
- T351P — higher, -0.191
- T351S — higher, -0.0139
- T351N — higher, -0.315
- D342A — higher, -0.75
- D342G — lower, -1.84
- D342V — lower, -1.71
- D342N — higher, -0.898
- D342Y — higher, -1.02
- D342E — lower, -1.69
- Q333H — higher, 0.227
- Q333K — higher, -0.851
- Q333L — higher, -0.0861
- Q333P — lower, -1.44
- Q333R — higher, 1.48
- L340V — higher, -0.561
- L340W — lower, -1.48
- L340S — lower, -1.47
- L340M — higher, 0.444
- L340F — lower, -1.05
- D326E — lower, -1.28
- D326G — higher, 0.327
- D326V — higher, -0.872
- D326Y — higher, -0.976
- D326A — higher, -0.893
- D326N — higher, -0.256

Variants of: B1
Test: yeast two-hybrid, quantitative GalUAS-lacZ (beta-galactosidase) reporter assay
Details: with itself; dark; strain AH109; parent: 25; read off a plot

Point of comparison: chain 1 D393S, response 170 Miller units. Against it:
- chain 1 M378R — higher, 210 Miller units
- chain 1 D393A — lower, 160 Miller units

Same assay, conditions: with itself; light; strain AH109; parent: 220; read off a plot

Point of comparison: chain 1 D393A, response 180 Miller units. Against it:
- chain 1 M378R — higher, 240 Miller units
- chain 1 D393S — lower, 160 Miller units
